In series [1] the test system is CC(C)C[C@H](NC(=O)[C@@H](NC(=O)c1ccccc1N)C(C)C)C(=O)N[C@@H](C)C(=O)NCC(=O)Nc1ccc([N+](=O)[O-])cc1. The series is described as follows: Fluorogenic Abz-VLAG-pNA cleavage by peptide-activated AlgW and LA loop mutants (200 nM), 25 mM Tris pH 7.5, 150 mM NaCl, 37°C, Michaelis-Menten fit. Format: biochemical. The procedure:
Based on the identified MucA and MucB cleavage sites for AlgW ([6], [13]), self-quenching fluorogenic tetrapeptides derived from 134-VLAG-137 of MucA (Abz-VLAG-pNA), 211-TVAW-214 of MucB (Abz-TVAW-pNA), and alanine tetrapeptide (Abz-AAAA-pNA) were synthesized and subjected to real-time measurement of AlgW proteolytic activity in the presence of excessive peptides (10 mM) (Fig. 2A). Compared with the negative-control group (using Abz-AAAA-pNA substrate), both Abz-VLAG-pNA and Abz-TVAW-pNA could be efficiently cleaved by AlgW. […] Considering that MucA is the major target of AlgW, substrate Abz-VLAG-pNA and decapeptide activator SVRDELRWVF were selected to establish a real-time AlgW assay to investigate the kinetic mechanism.
(§1) For the enzyme mechanism of AlgW (30–389) and mutants, two internally quenched fluorescent peptide substrates incorporating the peptidase cleavage site of MucA/MucB, Abz-VLAG-pNA and Abz-TVAW-pNA, were designed and synthesized (GL Biochem Shanghai Ltd., China). In the intact peptide, the fluorescence of the anthraniloyl group is quenched by the P-nitroaniline (Abz is a fluorogenic group, and pNA is a quencher of fluorescence). This quenched fluorescence is liberated upon cleavage of peptide by 200 nM AlgW and mutants (200/3 nM for trimer), resulting in increased fluorescence that can then be monitored fluorometrically. Prior to the assay, all enzyme preparations were incubated with 10 mM agonist peptides (WVF or SVRDELRWVF) for 30 min at room temperature. All assays were placed in a buffer containing 25 mM Tris (pH 7.5) and 150 mM NaCl at 37°C for 1 h, and the final assay volume was 100 μl. The fluorescent degradation products were monitored at 60-s intervals at fluorescence wavelength—λex = 310 nm, λem = 420 nm ([41]). All data points were representative of three independent determinations and were simulated with solid lines with the formula Y = Vmax · X^h/(Km ^h + X^h) or Y = Vmax · X^h/(Khalf^h + X^h) or the Michaelis-Menten formula (Y = Vmax · X/[Km + X]). Substrate versus velocity was used to determine Km and Vmax, and agonists versus velocity was used to determine the half-maximal activation concentration and maximum activation rate of agonists. The fitting and calculation of data were carried out using Prism 7 (GraphPad, CA, USA).

Series [2] concerns AlgW and mutants. The experiment in a line: Apparent activation parameters of AlgW and mutants (peptide agonist gradient). It counts as biochemical, Pseudomonas aeruginosa. To be noted: peptide activator (decapeptide) gradient, substrate Abz-VLAG-pNA, Michaelis-Menten fit, means of three independent determinations; for EC50: read-out: Half-maximal activation concn; for Maximal cleavage activity: Tris pH 7.5, 150 mM NaCl, 37°C.
Source text: as §1

The term Km denotes the concentration of substrate that gives half-maximal velocity. Broadly, the Vmax is the rate approached at saturating substrate. Usually kcat/Km stands for the turnover number divided by the Michaelis constant. On to “AlgW-T71A (Pseudomonas aeruginosa PAO1; T71A)”, for which, in series [1], the Km is 48.29 ± 6.19 µM, the maximum rate (Vmax) is 154 µM/min and the kcat/Km came out at 799000 ± 33200 M⁻¹ s⁻¹.
In the same order, the values of “AlgW-TTK (71–73)A (Pseudomonas aeruginosa PAO1; K73A/T71A/T72A)” are 125.1 ± 19.87 µM, 1430 µM/min and 2.86e+06 ± 199000 M⁻¹ s⁻¹.
For “AlgW-ESS (103–105)A (Pseudomonas aeruginosa PAO1; E103A/S104A/S105A)”, in series [1], the Km is 123.1 ± 19.44 µM, the maximum rate (Vmax) turned out to be 873 µM/min and the kcat/Km came out at 1.77e+06 ± 122000 M⁻¹ s⁻¹.
In the same order, the values of “AlgW-K73A (Pseudomonas aeruginosa PAO1; K73A)” are 247.9 ± 93.04 µM, 188 µM/min and 189000 ± 39700 M⁻¹ s⁻¹.
The like results for “AlgW-T72A (Pseudomonas aeruginosa PAO1; T72A)” were, in that order, 86.69 ± 15.8 µM, 766 µM/min and 2.21e+06 ± 156000 M⁻¹ s⁻¹.

B1: AlgW-R279A (protein)
chain: VGLPRQEVHVEQAPLLSRLQEGPVSYANAVSRAAPAVANLYTTKMVSKPSHPLFDDPMFRRFFGDNLPQQKRMESSLGSAVIMSAEGYLLTNNHVTAGADQIIVALRDGRETIAQLVGSDPETDLAVLKIDLKNLPAMTLGRSDGIRTGDVCLAIGNPFGVGQTVTMGIISATGRNQLGLNTYEDFIQTDAAINPGNSGGALVDAAGNLIGINTAIFSKSGGSQGIGFAIPTKLALEVMQSIIEHGQVIAGWLGVEVKALTPELAESLGLGETAGIVVAGVYRDGPAARGGLLPGDVILTIDKQEASDGRRSMNQVARTRPGQKISIVVLRNGQKVNLTAEVGLRPPPAPAPQQKQDGGE
modifications: left off: His6, C-terminal, state not stated
In the case of B1, in series [2], the EC50 was found to be 2190 ± 990 nM and the Maximal cleavage activity amounted to 26.87 ± 3.21 µM/min.

B2: AlgW-R347A (protein)
chain: VGLPRQEVHVEQAPLLSRLQEGPVSYANAVSRAAPAVANLYTTKMVSKPSHPLFDDPMFRRFFGDNLPQQKRMESSLGSAVIMSAEGYLLTNNHVTAGADQIIVALRDGRETIAQLVGSDPETDLAVLKIDLKNLPAMTLGRSDGIRTGDVCLAIGNPFGVGQTVTMGIISATGRNQLGLNTYEDFIQTDAAINPGNSGGALVDAAGNLIGINTAIFSKSGGSQGIGFAIPTKLALEVMQSIIEHGQVIRGWLGVEVKALTPELAESLGLGETAGIVVAGVYRDGPAARGGLLPGDVILTIDKQEASDGRRSMNQVAATRPGQKISIVVLRNGQKVNLTAEVGLRPPPAPAPQQKQDGGE
modifications: left off: His6, C-terminal, state not stated
Turning to B2, in series [2], the EC50 was 1850 ± 990 nM and the Maximal cleavage activity is 63.5 ± 8.42 µM/min.

B3: AlgW-V284A (protein)
chain: VGLPRQEVHVEQAPLLSRLQEGPVSYANAVSRAAPAVANLYTTKMVSKPSHPLFDDPMFRRFFGDNLPQQKRMESSLGSAVIMSAEGYLLTNNHVTAGADQIIVALRDGRETIAQLVGSDPETDLAVLKIDLKNLPAMTLGRSDGIRTGDVCLAIGNPFGVGQTVTMGIISATGRNQLGLNTYEDFIQTDAAINPGNSGGALVDAAGNLIGINTAIFSKSGGSQGIGFAIPTKLALEVMQSIIEHGQVIRGWLGAEVKALTPELAESLGLGETAGIVVAGVYRDGPAARGGLLPGDVILTIDKQEASDGRRSMNQVARTRPGQKISIVVLRNGQKVNLTAEVGLRPPPAPAPQQKQDGGE
modifications: left off: His6, C-terminal, state not stated
On to B3, for which, in series [2], the EC50 turned out to be 3560 ± 730 nM and the Maximal cleavage activity came to 63.13 ± 3.82 µM/min.

B4: AlgW-K287A (protein)
chain: VGLPRQEVHVEQAPLLSRLQEGPVSYANAVSRAAPAVANLYTTKMVSKPSHPLFDDPMFRRFFGDNLPQQKRMESSLGSAVIMSAEGYLLTNNHVTAGADQIIVALRDGRETIAQLVGSDPETDLAVLKIDLKNLPAMTLGRSDGIRTGDVCLAIGNPFGVGQTVTMGIISATGRNQLGLNTYEDFIQTDAAINPGNSGGALVDAAGNLIGINTAIFSKSGGSQGIGFAIPTKLALEVMQSIIEHGQVIRGWLGVEVAALTPELAESLGLGETAGIVVAGVYRDGPAARGGLLPGDVILTIDKQEASDGRRSMNQVARTRPGQKISIVVLRNGQKVNLTAEVGLRPPPAPAPQQKQDGGE
modifications: left off: His6, C-terminal, state not stated
B4: in series [2], the EC50 amounted to 6530 ± 1380 nM and the Maximal cleavage activity worked out at 49.42 ± 3.59 µM/min.

B5: AlgW-E285A (protein)
chain: VGLPRQEVHVEQAPLLSRLQEGPVSYANAVSRAAPAVANLYTTKMVSKPSHPLFDDPMFRRFFGDNLPQQKRMESSLGSAVIMSAEGYLLTNNHVTAGADQIIVALRDGRETIAQLVGSDPETDLAVLKIDLKNLPAMTLGRSDGIRTGDVCLAIGNPFGVGQTVTMGIISATGRNQLGLNTYEDFIQTDAAINPGNSGGALVDAAGNLIGINTAIFSKSGGSQGIGFAIPTKLALEVMQSIIEHGQVIRGWLGVAVKALTPELAESLGLGETAGIVVAGVYRDGPAARGGLLPGDVILTIDKQEASDGRRSMNQVARTRPGQKISIVVLRNGQKVNLTAEVGLRPPPAPAPQQKQDGGE
modifications: left off: His6, C-terminal, state not stated
With B5, in series [2], the EC50 was 3840 ± 1090 nM and the Maximal cleavage activity was determined as 57.5 ± 4.9 µM/min.

B6: AlgW-L282A (protein)
chain: VGLPRQEVHVEQAPLLSRLQEGPVSYANAVSRAAPAVANLYTTKMVSKPSHPLFDDPMFRRFFGDNLPQQKRMESSLGSAVIMSAEGYLLTNNHVTAGADQIIVALRDGRETIAQLVGSDPETDLAVLKIDLKNLPAMTLGRSDGIRTGDVCLAIGNPFGVGQTVTMGIISATGRNQLGLNTYEDFIQTDAAINPGNSGGALVDAAGNLIGINTAIFSKSGGSQGIGFAIPTKLALEVMQSIIEHGQVIRGWAGVEVKALTPELAESLGLGETAGIVVAGVYRDGPAARGGLLPGDVILTIDKQEASDGRRSMNQVARTRPGQKISIVVLRNGQKVNLTAEVGLRPPPAPAPQQKQDGGE
modifications: left off: His6, C-terminal, state not stated
B6: in series [2], the EC50 amounted to 2760 ± 1190 nM and the Maximal cleavage activity is 13.24 ± 1.59 µM/min.

B7: AlgW-W281A (protein)
chain: VGLPRQEVHVEQAPLLSRLQEGPVSYANAVSRAAPAVANLYTTKMVSKPSHPLFDDPMFRRFFGDNLPQQKRMESSLGSAVIMSAEGYLLTNNHVTAGADQIIVALRDGRETIAQLVGSDPETDLAVLKIDLKNLPAMTLGRSDGIRTGDVCLAIGNPFGVGQTVTMGIISATGRNQLGLNTYEDFIQTDAAINPGNSGGALVDAAGNLIGINTAIFSKSGGSQGIGFAIPTKLALEVMQSIIEHGQVIRGALGVEVKALTPELAESLGLGETAGIVVAGVYRDGPAARGGLLPGDVILTIDKQEASDGRRSMNQVARTRPGQKISIVVLRNGQKVNLTAEVGLRPPPAPAPQQKQDGGE
modifications: left off: His6, C-terminal, state not stated
B7: in series [2], the EC50 came out at 1510 ± 720 nM and the Maximal cleavage activity was 10.32 ± 1.51 µM/min.

The record behind these values is publication PMC8545111, “Molecular Basis of the Versatile Regulatory Mechanism of HtrA-Type Protease AlgW from Pseudomonas aeruginosa” (mBio, 2021).
